In patent US20250206797A1:
Numbering of substitutions follows the chain as printed.

B1: fusion protein 8 (insulin analog 1 + L2 + IgG2 Fc1) (Fc fusion)
chain: FVNQHLCGEHLVEALYLVCGERGFHYGGGGGGSGGGGGIVEQCCESICSLEQLENYCGGGGGAGGGGAGGGGAGGGGGECPPCPAPPVAGPSVFLFPPKPKDTLMISRTPEVTCVVVDVSHEDPEVQFNWYVDGVEVHNAKTKPREEQFNSTFRVVSVLTVVHQDWLNGKEYKCKVSNKGLPAPIEKTISKTKGQPREPQVYTLPPSREEMTKNQVSLTCLVKGFYPSDIAVEWESNGQPENNYKTTPPMLDSDGSFFLYSKLTVDKSRWQQGNVFSCSVMHEALHNHYTQKSLSLSPG
B2: fusion protein 9 (insulin analog 6 + L2 + IgG2 Fc1) (Fc fusion)
chain: B1 chain with G58N, G59H, A63Q, A68Q, A73Q
B3: LY3209590 (Fc fusion)
chain: B1 chain with E9S, Y16E, E45T, I47T, E51D, A63Q, A68Q, A73Q
B4: fusion protein 1 (insulin analog 1 + L2 + IgG2 Fc1) (Fc fusion)
chain: B1 chain with A63Q, A68Q, A73Q
B5: fusion protein 2 (insulin analog 2 + L2 + IgG2 Fc1) (Fc fusion)
chain: B1 chain with E9S, E45H, A63Q, A68Q, A73Q
B6: fusion protein 3 (insulin analog 3 + L2 + IgG2 Fc1) (Fc fusion)
chain: B1 chain with E9S, Y16H, E45T, G58N, A63Q, A68Q, A73Q
B7: fusion protein 4 (insulin analog 4 + L2 + IgG2 Fc1) (Fc fusion)
chain: B1 chain with N3K, A63Q, A68Q, A73Q
B8: fusion protein 5 (insulin analog 1 + L2 + IgG2 Fc1) (Fc fusion)
chain: FVNQHLCGEHLVEALYLVCGERGFHYGGGGGGSGGGGGIVEQCCESICSLEQLENYCGGGGGQGGGGQGGGGQGGGGQGGGGQECPPCPAPPVAGPSVFLFPPKPKDTLMISRTPEVTCVVVDVSHEDPEVQFNWYVDGVEVHNAKTKPREEQFNSTFRVVSVLTVVHQDWLNGKEYKCKVSNKGLPAPIEKTISKTKGQPREPQVYTLPPSREEMTKNQVSLTCLVKGFYPSDIAVEWESNGQPENNYKTTPPMLDSDGSFFLYSKLTVDKSRWQQGNVFSCSVMHEALHNHYTQKSLSLSPG
B9: fusion protein 6 (insulin analog 5 + L2 + IgG2 Fc1) (Fc fusion)
chain: FVNQHLCGEHLVEALYLVCGERGFHYGGGGGSGGGGGIVEQCCESICSLEQLENYCGGGGGQGGGGQGGGGQGGGGGECPPCPAPPVAGPSVFLFPPKPKDTLMISRTPEVTCVVVDVSHEDPEVQFNWYVDGVEVHNAKTKPREEQFNSTFRVVSVLTVVHQDWLNGKEYKCKVSNKGLPAPIEKTISKTKGQPREPQVYTLPPSREEMTKNQVSLTCLVKGFYPSDIAVEWESNGQPENNYKTTPPMLDSDGSFFLYSKLTVDKSRWQQGNVFSCSVMHEALHNHYTQKSLSLSPG
B10: fusion protein 7 (insulin analog 1 + L2 + IgG2 Fc1) (Fc fusion)
chain: FVNQHLCGEHLVEALYLVCGERGFHYGGGGGGSGGGGGIVEQCCESICSLEQLENYCGPGPQPGPQPGPQPGPQPGPQPGPQPGPQPGPQECPPCPAPPVAGPSVFLFPPKPKDTLMISRTPEVTCVVVDVSHEDPEVQFNWYVDGVEVHNAKTKPREEQFNSTFRVVSVLTVVHQDWLNGKEYKCKVSNKGLPAPIEKTISKTKGQPREPQVYTLPPSREEMTKNQVSLTCLVKGFYPSDIAVEWESNGQPENNYKTTPPMLDSDGSFFLYSKLTVDKSRWQQGNVFSCSVMHEALHNHYTQKSLSLSPG

These binders were tested against Type B human insulin receptor (hIR-B) (human), P06213 (assay: cell-based or functional assay).
B1 showed an Activity of human insulin receptor subtype B (EC50), autophosphorylation in CHO-K1-hIRB cells (HTRF phospho-Y1150/1151) of 326 nM. Binder B2 has an Activity of human insulin receptor subtype B (EC50), autophosphorylation in CHO-K1-hIRB cells (HTRF phospho-Y1150/1151) of 120 nM. With B3 the Activity of human insulin receptor subtype B (EC50), autophosphorylation in CHO-K1-hIRB cells (HTRF phospho-Y1150/1151) was 116 nM. For B4, the Activity of human insulin receptor subtype B (EC50), autophosphorylation in CHO-K1-hIRB cells (HTRF phospho-Y1150/1151) was 422 nM. Binder B5 has an Activity of human insulin receptor subtype B (EC50), autophosphorylation in CHO-K1-hIRB cells (HTRF phospho-Y1150/1151) of 2.68 nM. In the case of B6, the Activity of human insulin receptor subtype B (EC50), autophosphorylation in CHO-K1-hIRB cells (HTRF phospho-Y1150/1151) is reported as 4.57 nM. Work on B7 yielded an Activity of human insulin receptor subtype B (EC50), autophosphorylation in CHO-K1-hIRB cells (HTRF phospho-Y1150/1151) of 288 nM. Work on B8 yielded an Activity of human insulin receptor subtype B (EC50), autophosphorylation in CHO-K1-hIRB cells (HTRF phospho-Y1150/1151) of 182 nM. B9 was tested, and the Activity of human insulin receptor subtype B (EC50), autophosphorylation in CHO-K1-hIRB cells (HTRF phospho-Y1150/1151) was 328 nM. In the case of B10, the Activity of human insulin receptor subtype B (EC50), autophosphorylation in CHO-K1-hIRB cells (HTRF phospho-Y1150/1151) is reported as 275 nM.
